Laboratory results from patent US20220106382A1.

How the values were obtained:
[1] = molecular target: RLuc8β2AR (β2-adrenergic receptor fused to RLuc8, BRET donor construct); experiment: BRET recruitment assay in co-transfected cells; the concentration is that of isoproterenol
[2] = molecular target: RLuc8β2AR (β2-adrenergic receptor fused to RLuc8, BRET donor construct); experiment: BRET recruitment assay, RLuc8β2AR and GFP-arrestin-3 in co-transfected cells; the concentration varied is that of isoproterenol
[3] = molecular target: RLuc8β2AR (β2-adrenergic receptor fused to RLuc8, BRET donor construct); experiment: BRET recruitment assay in co-transfected cells, isoproterenol-induced
[4] = molecular target: RLuc8β2AR (β2-adrenergic receptor fused to RLuc8, BRET donor construct); experiment: BRET recruitment assay, RLuc8β2AR and GFP-arrestin-3 mutant in co-transfected cells, isoproterenol-induced
[5] = molecular target: RLuc8β2AR (β2-adrenergic receptor fused to RLuc8, BRET donor construct); experiment: BRET recruitment assay, RLuc8β2AR and GFP-arrestin-3 mutant in co-transfected cells; the concentration varied is that of isoproterenol

Sequence of GFP-arrestin-3 WT (human wild-type arrestin-3, SEQ ID NO: 1) (chain): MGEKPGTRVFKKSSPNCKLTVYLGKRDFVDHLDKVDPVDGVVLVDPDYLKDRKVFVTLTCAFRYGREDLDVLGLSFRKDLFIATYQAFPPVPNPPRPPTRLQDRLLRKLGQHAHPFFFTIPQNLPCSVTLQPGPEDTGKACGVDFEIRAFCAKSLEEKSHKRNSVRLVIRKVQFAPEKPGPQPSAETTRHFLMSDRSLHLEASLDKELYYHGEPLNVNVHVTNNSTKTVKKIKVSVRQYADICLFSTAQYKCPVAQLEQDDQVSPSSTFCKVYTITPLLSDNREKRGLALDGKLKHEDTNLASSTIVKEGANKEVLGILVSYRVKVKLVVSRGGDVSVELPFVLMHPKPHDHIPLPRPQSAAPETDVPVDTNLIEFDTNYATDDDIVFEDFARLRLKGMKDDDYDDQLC

potency as concentration of isoproterenol for half of the total recruitment of the arrestin to β2AR [1]	Potency (pEC50 of isoproterenol for recruitment of the arrestin to β2AR) [2]	increase of efficacy in arrestin recruitment compared to wild-type arrestin-3 [3]	Efficacy (Emax) in %, normalized to WT [4]	Potency (pEC50 of isoproterenol for recruitment of the arrestin to β2AR) [5]	Molecule
158 nM	6.8 pEC50	–	–	–	GFP-arrestin-3 WT (human wild-type arrestin-3, SEQ ID NO: 1)
–	–	30%	132%	7.1 pEC50	GFP-arrestin-3 double mutant A (SEQ ID NO: 2): T299A + I386A
–	–	–	89.2%	7.2 pEC50	GFP-arrestin-3 triple mutant D (SEQ ID NO: 5): T299A + I386A + R393A (protein) MGEKPGTRVFKKSSPNCKLTVYLGKRDFVDHLDKVDPVDGVVLVDPDYLKDRKVFVTLTCAFRYGREDLDVLGLSFRKDLFIATYQAFPPVPNPPRPPTRLQDRLLRKLGQHAHPFFFTIPQNLPCSVTLQPGPEDTGKACGVDFEIRAFCAKSLEEKSHKRNSVRLVIRKVQFAPEKPGPQPSAETTRHFLMSDRSLHLEASLDKELYYHGEPLNVNVHVTNNSTKTVKKIKVSVRQYADICLFSTAQYKCPVAQLEQDDQVSPSSTFCKVYTITPLLSDNREKRGLALDGKLKHEDANLASSTIVKEGANKEVLGILVSYRVKVKLVVSRGGDVSVELPFVLMHPKPHDHIPLPRPQSAAPETDVPVDTNLIEFDTNYATDDDAVFEDFAALRLKGMKDDDYDDQLC
50.1 nM	–	–	103%	7.3 pEC50	GFP-arrestin-3 triple mutant B (SEQ ID NO: 3): T299A + I386A + R166A (protein) MGEKPGTRVFKKSSPNCKLTVYLGKRDFVDHLDKVDPVDGVVLVDPDYLKDRKVFVTLTCAFRYGREDLDVLGLSFRKDLFIATYQAFPPVPNPPRPPTRLQDRLLRKLGQHAHPFFFTIPQNLPCSVTLQPGPEDTGKACGVDFEIRAFCAKSLEEKSHKRNSVALVIRKVQFAPEKPGPQPSAETTRHFLMSDRSLHLEASLDKELYYHGEPLNVNVHVTNNSTKTVKKIKVSVRQYADICLFSTAQYKCPVAQLEQDDQVSPSSTFCKVYTITPLLSDNREKRGLALDGKLKHEDANLASSTIVKEGANKEVLGILVSYRVKVKLVVSRGGDVSVELPFVLMHPKPHDHIPLPRPQSAAPETDVPVDTNLIEFDTNYATDDDAVFEDFARLRLKGMKDDDYDDQLC
–	–	–	109%	7.2 pEC50	GFP-arrestin-3 triple mutant C (SEQ ID NO: 4): T299A + I386A + D298A (protein) MGEKPGTRVFKKSSPNCKLTVYLGKRDFVDHLDKVDPVDGVVLVDPDYLKDRKVFVTLTCAFRYGREDLDVLGLSFRKDLFIATYQAFPPVPNPPRPPTRLQDRLLRKLGQHAHPFFFTIPQNLPCSVTLQPGPEDTGKACGVDFEIRAFCAKSLEEKSHKRNSVRLVIRKVQFAPEKPGPQPSAETTRHFLMSDRSLHLEASLDKELYYHGEPLNVNVHVTNNSTKTVKKIKVSVRQYADICLFSTAQYKCPVAQLEQDDQVSPSSTFCKVYTITPLLSDNREKRGLALDGKLKHEAANLASSTIVKEGANKEVLGILVSYRVKVKLVVSRGGDVSVELPFVLMHPKPHDHIPLPRPQSAAPETDVPVDTNLIEFDTNYATDDDAVFEDFARLRLKGMKDDDYDDQLC
